Data reported in publication PMC7772510.

Biological target: complement fragment iC3b (UniProt P01024)
Assay: ELISA

percent of the anticipated saturation level at 8 µM: 50%
Substance: GST-αM I-domain (domain or fragment)
